Measured values taken from the supplement of paper PMC10065799, “High-throughput profiling of sequence recognition by tyrosine kinases and SH2 domains using bacterial peptide display” (eLife, 2023).

Columns and labels:
EPHB1 = EPHB1 (UniProt P54762); test: phosphorylation enrichment, bacterial display (enrichment ratio); higher = better substrate or ligand; peptides without Tyr show the background
Hck = Hck (UniProt P08631); test: as above
FGFR1 = FGFR1 (UniProt P11362); test: as above
EPHB2 = EPHB2 (UniProt P29323); test: as above
c-Src = test: as above
Jak2 = Jak2 (UniProt O60674); test: as above
Fer (mouse) = test: as above
Fyn = Fyn (UniProt P06241); test: as above
AncSZ = test: as above
FGFR3 = FGFR3 (UniProt P22607); test: as above
MERTK = MERTK (UniProt Q12866); test: as above
Fes = Fes (UniProt P07332); test: as above
c-Abl (mouse) = test: as above
Grb2 SH2 = Grb2 SH2 (UniProt P62993); test: SH2 binding enrichment of the phosphorylated peptide, bacterial display (enrichment ratio); higher = better substrate or ligand; peptides without Tyr show the background
SHP2-C SH2 = test: as above
c-Src SH2 = test: as above
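Throughout, for SH2 binding enrichment of the phosphorylated peptide, bacterial display: peptide library displayed on the E. coli surface as eCPX fusions, selected cells deep-sequenced, score is each peptide's frequency after selection divided by its frequency in the input.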
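Throughout, for phosphorylation enrichment, bacterial display: 11-residue human phosphosite peptides and single-mutation variants displayed on the E. coli surface, counted by deep sequencing, each peptide's frequency after selection divided by its frequency in the unselected input library; frequency after pTyr selection over input frequency; kinase dosed for 20-30% of maximal phosphorylation in three min.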

Sequence of Fes (P07332 whole entry, looked up): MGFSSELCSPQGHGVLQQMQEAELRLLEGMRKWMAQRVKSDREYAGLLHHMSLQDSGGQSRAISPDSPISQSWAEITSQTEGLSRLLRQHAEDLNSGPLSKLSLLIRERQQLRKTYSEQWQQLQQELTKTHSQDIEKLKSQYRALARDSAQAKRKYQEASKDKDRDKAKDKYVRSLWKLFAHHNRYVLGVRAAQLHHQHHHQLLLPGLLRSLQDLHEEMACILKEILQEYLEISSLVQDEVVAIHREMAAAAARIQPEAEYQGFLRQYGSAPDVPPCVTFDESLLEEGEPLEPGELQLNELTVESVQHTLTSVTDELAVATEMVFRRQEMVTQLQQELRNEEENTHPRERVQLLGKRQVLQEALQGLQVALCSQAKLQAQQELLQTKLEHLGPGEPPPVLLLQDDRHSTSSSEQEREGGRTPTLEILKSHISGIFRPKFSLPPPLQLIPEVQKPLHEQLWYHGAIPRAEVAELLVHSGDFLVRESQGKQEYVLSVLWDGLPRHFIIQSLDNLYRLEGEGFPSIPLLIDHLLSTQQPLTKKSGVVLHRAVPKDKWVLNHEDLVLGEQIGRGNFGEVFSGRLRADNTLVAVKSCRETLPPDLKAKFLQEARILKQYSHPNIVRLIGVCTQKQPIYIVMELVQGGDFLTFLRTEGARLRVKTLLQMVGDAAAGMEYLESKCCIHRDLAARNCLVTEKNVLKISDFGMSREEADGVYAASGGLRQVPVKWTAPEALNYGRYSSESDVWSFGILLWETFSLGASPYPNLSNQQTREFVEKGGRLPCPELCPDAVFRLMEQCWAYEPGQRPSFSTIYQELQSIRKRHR
Sequence of MERTK (Q12866 whole entry, looked up): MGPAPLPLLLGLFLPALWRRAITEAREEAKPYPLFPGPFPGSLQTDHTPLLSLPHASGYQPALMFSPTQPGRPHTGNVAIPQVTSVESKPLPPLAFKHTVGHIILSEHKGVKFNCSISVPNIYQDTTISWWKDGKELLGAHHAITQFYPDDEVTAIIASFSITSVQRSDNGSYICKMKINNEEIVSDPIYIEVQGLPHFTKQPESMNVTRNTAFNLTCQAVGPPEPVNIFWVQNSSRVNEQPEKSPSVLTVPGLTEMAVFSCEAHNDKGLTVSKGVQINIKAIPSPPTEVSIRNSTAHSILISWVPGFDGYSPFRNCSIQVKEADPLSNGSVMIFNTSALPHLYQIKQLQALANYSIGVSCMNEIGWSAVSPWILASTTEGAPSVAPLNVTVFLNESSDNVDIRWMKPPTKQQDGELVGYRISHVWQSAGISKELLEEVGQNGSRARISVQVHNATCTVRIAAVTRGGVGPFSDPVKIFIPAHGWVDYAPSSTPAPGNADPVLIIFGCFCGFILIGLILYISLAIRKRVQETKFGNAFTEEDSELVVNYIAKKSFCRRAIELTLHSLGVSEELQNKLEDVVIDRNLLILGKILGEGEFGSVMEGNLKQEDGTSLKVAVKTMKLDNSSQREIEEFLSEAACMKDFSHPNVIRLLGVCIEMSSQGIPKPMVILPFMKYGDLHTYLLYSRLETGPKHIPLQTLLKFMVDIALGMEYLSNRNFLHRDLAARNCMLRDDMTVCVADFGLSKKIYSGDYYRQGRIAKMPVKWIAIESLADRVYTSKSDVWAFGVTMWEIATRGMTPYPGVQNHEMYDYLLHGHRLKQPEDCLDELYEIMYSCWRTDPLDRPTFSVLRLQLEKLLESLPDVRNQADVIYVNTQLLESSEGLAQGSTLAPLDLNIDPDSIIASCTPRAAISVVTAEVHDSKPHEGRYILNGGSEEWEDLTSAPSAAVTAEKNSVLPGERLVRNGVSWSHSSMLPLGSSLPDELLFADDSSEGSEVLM
Sequence of EPHB1 (P54762 whole entry, looked up): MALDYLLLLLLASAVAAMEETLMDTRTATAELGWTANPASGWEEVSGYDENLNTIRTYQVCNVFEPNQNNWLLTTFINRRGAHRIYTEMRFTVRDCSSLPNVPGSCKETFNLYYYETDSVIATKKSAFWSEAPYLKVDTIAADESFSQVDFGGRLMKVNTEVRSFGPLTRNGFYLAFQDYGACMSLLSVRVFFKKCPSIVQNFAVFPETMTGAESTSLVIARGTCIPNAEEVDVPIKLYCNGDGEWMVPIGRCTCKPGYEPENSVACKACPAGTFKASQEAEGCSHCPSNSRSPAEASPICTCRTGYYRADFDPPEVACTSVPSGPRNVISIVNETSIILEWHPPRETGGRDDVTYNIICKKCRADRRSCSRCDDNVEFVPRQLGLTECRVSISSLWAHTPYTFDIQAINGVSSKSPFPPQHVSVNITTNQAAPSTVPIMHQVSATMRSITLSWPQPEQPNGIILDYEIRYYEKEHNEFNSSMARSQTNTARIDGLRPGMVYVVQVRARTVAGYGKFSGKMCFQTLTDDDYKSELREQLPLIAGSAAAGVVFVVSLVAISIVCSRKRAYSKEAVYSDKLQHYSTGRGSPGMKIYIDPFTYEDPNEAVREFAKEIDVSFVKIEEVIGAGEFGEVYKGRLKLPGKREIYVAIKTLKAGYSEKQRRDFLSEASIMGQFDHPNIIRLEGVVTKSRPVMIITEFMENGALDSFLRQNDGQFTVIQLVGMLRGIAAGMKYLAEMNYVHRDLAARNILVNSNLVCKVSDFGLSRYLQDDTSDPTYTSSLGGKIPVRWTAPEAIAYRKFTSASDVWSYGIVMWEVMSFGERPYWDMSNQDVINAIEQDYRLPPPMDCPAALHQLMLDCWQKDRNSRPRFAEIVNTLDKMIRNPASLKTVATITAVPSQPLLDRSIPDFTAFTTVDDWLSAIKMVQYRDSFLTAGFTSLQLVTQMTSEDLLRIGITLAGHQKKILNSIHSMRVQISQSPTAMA
Sequence of Jak2 (O60674 whole entry, looked up): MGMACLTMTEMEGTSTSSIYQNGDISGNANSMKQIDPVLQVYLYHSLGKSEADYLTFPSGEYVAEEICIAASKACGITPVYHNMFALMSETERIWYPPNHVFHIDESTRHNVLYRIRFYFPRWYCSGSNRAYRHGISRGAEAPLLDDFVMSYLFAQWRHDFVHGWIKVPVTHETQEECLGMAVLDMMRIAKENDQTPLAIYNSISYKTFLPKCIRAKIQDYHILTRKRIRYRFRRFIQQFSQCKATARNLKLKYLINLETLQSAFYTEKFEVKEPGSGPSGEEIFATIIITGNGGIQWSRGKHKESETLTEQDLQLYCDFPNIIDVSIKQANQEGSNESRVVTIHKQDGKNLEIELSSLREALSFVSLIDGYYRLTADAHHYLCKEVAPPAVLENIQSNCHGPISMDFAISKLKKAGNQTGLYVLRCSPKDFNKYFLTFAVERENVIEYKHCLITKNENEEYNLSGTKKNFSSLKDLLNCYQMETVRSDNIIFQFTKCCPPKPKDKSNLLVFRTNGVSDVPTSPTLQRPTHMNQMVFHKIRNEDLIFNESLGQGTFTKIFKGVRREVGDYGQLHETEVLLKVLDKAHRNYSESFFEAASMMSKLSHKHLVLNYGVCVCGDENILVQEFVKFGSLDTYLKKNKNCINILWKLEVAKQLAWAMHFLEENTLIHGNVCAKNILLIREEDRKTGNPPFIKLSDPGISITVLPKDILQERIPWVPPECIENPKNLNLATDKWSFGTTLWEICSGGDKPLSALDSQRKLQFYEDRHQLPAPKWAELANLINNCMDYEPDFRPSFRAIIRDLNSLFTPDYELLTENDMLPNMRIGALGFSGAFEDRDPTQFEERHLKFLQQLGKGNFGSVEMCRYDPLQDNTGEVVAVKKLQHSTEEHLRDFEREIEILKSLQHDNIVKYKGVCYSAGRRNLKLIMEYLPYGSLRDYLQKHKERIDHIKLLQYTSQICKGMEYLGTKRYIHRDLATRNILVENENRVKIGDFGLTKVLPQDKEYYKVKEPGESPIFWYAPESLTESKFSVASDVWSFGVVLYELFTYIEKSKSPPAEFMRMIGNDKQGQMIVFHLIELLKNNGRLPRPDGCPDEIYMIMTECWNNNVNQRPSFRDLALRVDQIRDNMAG
Sequence of Fyn (P06241 whole entry, looked up): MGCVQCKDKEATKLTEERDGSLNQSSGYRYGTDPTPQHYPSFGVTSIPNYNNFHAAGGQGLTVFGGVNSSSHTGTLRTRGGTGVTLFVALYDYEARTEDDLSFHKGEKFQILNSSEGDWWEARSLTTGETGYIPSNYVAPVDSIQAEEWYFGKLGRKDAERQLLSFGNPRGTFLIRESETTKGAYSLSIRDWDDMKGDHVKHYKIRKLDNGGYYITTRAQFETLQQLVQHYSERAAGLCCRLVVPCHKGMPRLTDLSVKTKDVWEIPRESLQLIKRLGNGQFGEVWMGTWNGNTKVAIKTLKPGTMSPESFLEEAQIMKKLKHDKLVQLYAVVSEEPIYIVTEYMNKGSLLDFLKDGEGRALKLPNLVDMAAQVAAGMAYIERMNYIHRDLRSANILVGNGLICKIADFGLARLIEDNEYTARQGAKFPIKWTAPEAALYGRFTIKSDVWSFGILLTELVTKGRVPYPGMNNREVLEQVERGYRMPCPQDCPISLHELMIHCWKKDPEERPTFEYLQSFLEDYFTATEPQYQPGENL
Sequence of Hck (P08631 whole entry, looked up): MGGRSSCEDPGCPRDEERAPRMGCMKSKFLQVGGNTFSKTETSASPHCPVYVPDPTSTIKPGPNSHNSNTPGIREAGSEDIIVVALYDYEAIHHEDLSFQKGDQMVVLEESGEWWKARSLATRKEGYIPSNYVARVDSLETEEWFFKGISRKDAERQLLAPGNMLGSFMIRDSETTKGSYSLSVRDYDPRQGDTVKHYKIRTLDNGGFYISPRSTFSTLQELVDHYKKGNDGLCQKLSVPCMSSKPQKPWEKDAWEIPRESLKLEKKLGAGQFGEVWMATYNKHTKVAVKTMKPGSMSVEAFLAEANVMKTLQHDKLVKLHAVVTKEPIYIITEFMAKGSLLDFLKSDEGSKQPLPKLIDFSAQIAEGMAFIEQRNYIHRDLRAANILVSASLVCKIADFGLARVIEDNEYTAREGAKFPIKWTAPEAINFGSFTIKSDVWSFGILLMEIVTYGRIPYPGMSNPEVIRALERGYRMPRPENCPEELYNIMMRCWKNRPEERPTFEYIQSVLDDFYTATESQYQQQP

Sequence | phosphorylation enrichment (EPHB1) | phosphorylation enrichment (Hck) | phosphorylation enrichment (FGFR1) | phosphorylation enrichment (EPHB2) | phosphorylation enrichment (c-Src) | phosphorylation enrichment (Jak2) | phosphorylation enrichment (Fer (mouse)) | phosphorylation enrichment (Fyn) | phosphorylation enrichment (AncSZ) | phosphorylation enrichment (FGFR3) | phosphorylation enrichment (MERTK) | phosphorylation enrichment (Fes) | phosphorylation enrichment (c-Abl (mouse)) | SH2 binding enrichment (Grb2 SH2) | SH2 binding enrichment (SHP2-C SH2) | SH2 binding enrichment (c-Src SH2)
ERPGVHTNVVE [F11_Y608_Y608H] | 0.598 | 0.394 | 0.46 | 0.769 | 0.388 | 0.777 | 0.474 | 0.517 | 0.794 | 0.754 | 0.483 | 0.964 | 0.717 | 0.849 | 0.605 | 0.491
HAVYVCDICHV [TWNK_Y508_Y508C] | 1.79 | 0.826 | 0.628 | 2.06 | 0.916 | 1.01 | 0.775 | 0.627 | 1.1 | 0.904 | 0.524 | 1.42 | 0.972 | 1.18 | 1.26 | 1.28
IMVFVYSRVFQ [ADRB2_Y219] | 0.554 | 0.435 | 0.445 | 0.484 | 0.486 | 0.93 | 0.487 | 0.445 | 0.961 | 0.786 | 0.448 | 1.16 | 0.844 | 1.12 | 0.794 | 0.591
RRESPYGGGGG [FUS_Y526_R524S] | 0.46 | 0.596 | 0.402 | 0.546 | 0.519 | 0.74 | 0.436 | 0.451 | 0.636 | 0.414 | 0.501 | 0.611 | 0.569 | 0.907 | 0.362 | 0.566
NSRYTYKLEVK [USH2A_Y3747] | 0.618 | 0.478 | 0.427 | 0.689 | 0.42 | 0.982 | 0.505 | 0.437 | 1.12 | 0.687 | 0.396 | 1.29 | 0.795 | 0.962 | 0.911 | 0.644
MMVGAYSTLEG [ECPAS_Y470] | 0.735 | 1.07 | 0.538 | 0.545 | 0.704 | 0.557 | 0.743 | 0.607 | 0.765 | 0.676 | 3.09 | 0.839 | 0.57 | 0.777 | 1.44 | 11.7
FRVDCYKNFVA [FHL1_Y213_C209R_YF] | 0.783 | 0.511 | 0.542 | 0.68 | 0.502 | 1.11 | 0.58 | 0.566 | 1.23 | 0.956 | 0.496 | 1.49 | 0.979 | 0.993 | 0.703 | 0.656
QLQVFYATLDQ [MIPEP_Y579] | 1.09 | 3.38 | 1.12 | 1.99 | 3.92 | 2.12 | 2.77 | 1.8 | 1.74 | 1.34 | 7.63 | 2.19 | 2.27 | 1.26 | 5.62 | 3.26
ILGRFYETGSI [PAX2_Y73_YF] | 0.489 | 0.451 | 0.423 | 0.515 | 0.414 | 0.566 | 0.4 | 0.5 | 0.737 | 0.578 | 0.428 | 0.779 | 0.52 | 0.85 | 1.17 | 1.17
GRVFVYHLSEQ [ITGAE_Y551_R552H_YF] | 0.508 | 0.579 | 0.593 | 0.608 | 0.629 | 0.684 | 0.444 | 0.68 | 0.986 | 0.626 | 0.44 | 0.893 | 0.471 | 0.769 | 1.28 | 0.614
HRAVEYLLMGI [RAD23A_Y197_T200M] | 0.479 | 0.552 | 1.19 | 0.419 | 0.441 | 0.921 | 0.351 | 0.429 | 0.976 | 1.02 | 0.471 | 0.802 | 0.665 | 1.35 | 1.55 | 1.11
TSLAQYDSNSK [BMX_Y216] | 0.352 | 0.428 | 0.525 | 0.568 | 0.479 | 0.579 | 0.37 | 0.344 | 0.622 | 0.443 | 0.444 | 0.736 | 0.543 | 0.826 | 0.622 | 0.438
MEKEKYVSYIS [JMJD1C_Y596] | 0.571 | 0.442 | 0.401 | 0.509 | 0.5 | 0.921 | 0.397 | 0.471 | 0.795 | 0.672 | 0.413 | 1.11 | 0.629 | 0.612 | 0.815 | 0.432
SGDINYGQFAQ [PLCG1_Y210_T209N] | 0.478 | 0.65 | 0.289 | 0.63 | 0.647 | 0.631 | 0.423 | 0.554 | 0.727 | 0.548 | 0.387 | 0.683 | 0.874 | 1.07 | 0.596 | 0.526
WFPANYVKLLN [ITSN1_Y1132_S1137N] | 3.81 | 0.536 | 0.599 | 1.21 | 0.532 | 1.45 | 0.511 | 0.53 | 1.06 | 0.76 | 0.587 | 1.14 | 0.759 | 0.919 | 2.22 | 0.646
LSEEKYELKEG [TREM1_Y29_T25S] | 0.712 | 0.513 | 0.592 | 0.628 | 0.489 | 1.18 | 0.627 | 0.574 | 1.54 | 0.835 | 0.449 | 1.4 | 0.875 | 0.713 | 0.603 | 0.391
KNEVFYQCPDQ [FBXO3_Y223] | 1.04 | 1.69 | 1.26 | 2.03 | 0.985 | 0.941 | 6.47 | 1.03 | 3.2 | 1.49 | 3.49 | 1.55 | 7.94 | 0.783 | 0.523 | 0.526

Sequence | phosphorylation enrichment (EPHB1) | phosphorylation enrichment (Hck) | phosphorylation enrichment (FGFR1) | phosphorylation enrichment (EPHB2) | phosphorylation enrichment (c-Src) | phosphorylation enrichment (Jak2) | phosphorylation enrichment (Fer (mouse)) | phosphorylation enrichment (Fyn) | phosphorylation enrichment (AncSZ) | phosphorylation enrichment (FGFR3) | phosphorylation enrichment (MERTK) | phosphorylation enrichment (Fes) | phosphorylation enrichment (c-Abl (mouse)) | SH2 binding enrichment (Grb2 SH2) | SH2 binding enrichment (SHP2-C SH2) | SH2 binding enrichment (c-Src SH2)
YKIYLYTLNDN [FN1_Y1975] | 0.801 | 0.563 | 0.541 | 0.711 | 0.431 | 1.4 | 0.671 | 0.479 | 1.34 | 1.02 | 0.383 | 1.52 | 1.09 | 0.794 | 0.851 | 0.483
GFCSWYRGWAP [TIMP3_Y195_YF] | 0.763 | 0.497 | 0.514 | 0.597 | 0.773 | 1.2 | 0.593 | 0.472 | 1.27 | 0.813 | 0.498 | 1.27 | 0.912 | 0.953 | 0.968 | 0.609
TEFIQYMRRKN [MAX_Y73_YF] | 0.44 | 0.458 | 0.367 | 0.732 | 0.521 | 0.594 | 0.51 | 0.547 | 0.701 | 0.486 | 0.472 | 0.629 | 0.404 | 0.675 | 0.54 | 0.387
EFHRLYEEFTR [PIK3R1_Y467_D464H_YF] | 5.22 | 7.49 | 0.573 | 2.58 | 5.59 | 0.714 | 3.87 | 7.21 | 0.97 | 0.579 | 4.42 | 0.941 | 0.709 | 0.86 | 0.782 | 0.694
GDPTEYYSTAI [IGSF22_Y501] | 0.598 | 0.809 | 2.04 | 0.555 | 0.87 | 0.954 | 0.738 | 0.599 | 1.77 | 1.74 | 0.497 | 0.873 | 0.636 | 0.959 | 0.734 | 0.619
QLDQRYLLVPE [DDX49_Y223] | 0.613 | 0.664 | 0.843 | 0.807 | 0.701 | 0.748 | 0.374 | 0.574 | 1.12 | 0.799 | 0.572 | 0.978 | 0.665 | 0.754 | 0.715 | 0.763
APSHAYHGGVL [ANO1_Y981] | 0.371 | 0.5 | 0.626 | 0.336 | 0.475 | 0.496 | 0.502 | 0.382 | 0.52 | 0.427 | 0.381 | 0.494 | 0.505 | 0.881 | 0.501 | 0.629
LIFVSYDDWDY [GRIN2A_Y281_S278F] | 1.8 | 0.774 | 0.95 | 2.52 | 0.914 | 2.22 | 4.89 | 0.966 | 2.07 | 1.77 | 0.618 | 2.75 | 1.49 | 1.38 | 1.38 | 1.16
GLDGSYLLRFS [SH2D1A_Y29_D33Y_YF] | 0.44 | 0.408 | 0.385 | 0.518 | 0.465 | 0.843 | 0.424 | 0.435 | 0.839 | 0.546 | 0.414 | 0.965 | 0.644 | 0.885 | 0.937 | 0.944
LNRAGYCDALE [MTUS1_Y151_C148R] | 0.684 | 0.424 | 0.686 | 0.988 | 0.591 | 1 | 0.571 | 0.537 | 1.06 | 0.994 | 0.484 | 1.12 | 0.749 | 0.773 | 0.773 | 0.727
PGVNYYFRVSA | 0.715 | 0.469 | 0.787 | 0.706 | 0.331 | 1.26 | 0.466 | 0.466 | 1.11 | 1.01 | 0.448 | 1.08 | 0.79 | 0.849 | 1.64 | 0.611
AHDGEYGAEAL [HBA1_Y25_A22D] | 0.556 | 0.445 | 0.513 | 0.62 | 0.424 | 0.819 | 0.534 | 0.552 | 0.97 | 0.645 | 0.451 | 1.08 | 0.608 | 0.83 | 0.563 | 0.493
VKYLGYPPPEI [KDR_Y357_A352V] | 0.468 | 0.451 | 0.666 | 0.491 | 0.403 | 0.489 | 0.37 | 0.486 | 0.7 | 0.626 | 0.427 | 0.719 | 0.796 | 0.896 | 1.84 | 0.495
KASVDYIRKLQ [MITF_Y360] | 0.393 | 0.351 | 0.364 | 0.409 | 0.345 | 0.589 | 0.351 | 0.336 | 0.765 | 0.482 | 0.32 | 0.651 | 0.503 | 0.838 | 0.899 | 0.454
RQNRFYDAKVR [FKBP6_Y188] | 0.226 | 0.606 | 0.506 | 0.432 | 1.18 | 0.81 | 0.605 | 0.427 | 0.687 | 0.496 | 0.672 | 0.715 | 0.658 | 1.02 | 0.675 | 0.441
LSSEMYVKSYT [F5_Y2149] | 1.14 | 0.991 | 1.27 | 2.05 | 0.73 | 1.12 | 0.771 | 1.2 | 1.46 | 1.12 | 0.76 | 1.56 | 0.733 | 0.89 | 0.609 | 0.479
